Laboratory results taken from IntAct's records for PubMed 11113154.

Tests used:
bem1_yeast BEM1 [1] = target: bem1_yeast BEM1 (UniProt P29366)
bem1_yeast BEM1 [2] = target: bem1_yeast BEM1 (UniProt P29366); remark: listed apart in the source

Chain of bem1_yeast BEM1 (P29366 whole entry): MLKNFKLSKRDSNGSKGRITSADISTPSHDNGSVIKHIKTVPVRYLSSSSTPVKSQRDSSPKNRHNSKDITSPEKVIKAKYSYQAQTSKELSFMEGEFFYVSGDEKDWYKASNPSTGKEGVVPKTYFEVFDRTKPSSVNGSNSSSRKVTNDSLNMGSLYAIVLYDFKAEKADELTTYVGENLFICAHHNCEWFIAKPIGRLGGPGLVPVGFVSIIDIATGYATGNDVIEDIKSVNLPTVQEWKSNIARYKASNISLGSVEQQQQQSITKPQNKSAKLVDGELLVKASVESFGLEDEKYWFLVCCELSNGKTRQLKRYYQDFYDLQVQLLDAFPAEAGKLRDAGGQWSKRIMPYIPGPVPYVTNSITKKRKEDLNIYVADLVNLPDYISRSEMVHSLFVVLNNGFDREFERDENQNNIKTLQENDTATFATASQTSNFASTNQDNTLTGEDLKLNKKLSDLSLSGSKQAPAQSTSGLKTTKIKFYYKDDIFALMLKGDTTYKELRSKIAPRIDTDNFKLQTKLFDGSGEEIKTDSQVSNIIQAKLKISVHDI
Chain of Cell division control protein 42 (Saccharomyces cerevisiae), P19073 Q61L (P19073 whole entry Q61L): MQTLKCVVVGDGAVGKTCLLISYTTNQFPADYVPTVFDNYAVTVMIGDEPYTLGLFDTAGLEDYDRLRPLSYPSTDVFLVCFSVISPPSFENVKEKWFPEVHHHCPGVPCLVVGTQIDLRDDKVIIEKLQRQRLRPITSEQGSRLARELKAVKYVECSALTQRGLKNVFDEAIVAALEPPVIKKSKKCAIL
Chain of Cell division control protein 42 (Saccharomyces cerevisiae), P19073 D57Y (P19073 whole entry D57Y): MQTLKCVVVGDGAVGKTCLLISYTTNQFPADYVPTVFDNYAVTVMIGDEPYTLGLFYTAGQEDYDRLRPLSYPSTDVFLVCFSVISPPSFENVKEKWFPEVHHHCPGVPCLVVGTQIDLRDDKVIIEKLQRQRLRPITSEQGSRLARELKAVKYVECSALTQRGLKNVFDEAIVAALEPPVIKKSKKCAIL

Substance	effect of a mutation on the interaction (bem1_yeast BEM1 [1])	effect of a mutation on the interaction (bem1_yeast BEM1 [2])
Cell division control protein 42 (Saccharomyces cerevisiae), P19073 D57Y	disrupting interaction strength	–
Cell division control protein 42 (Saccharomyces cerevisiae), P19073 Q61L	–	with no effect
